# Patent US20050196753
# Tested on: recombinant Histone H3
substance,measurement,value
"human coactivator-associated arginine methyltransferase 1 (hCARM1), full-length, purified from baculovirus infected insect cells","methylation of Histone H3 (in vitro methylation assay, SDS-PAGE and film)",hCARM1 methylates Histone H3 efficiently
